Source: PMC12325741 (2025)
Like-named read-outs stand apart in the source and are kept apart here. Each block holds one binder with its values, some of them ahead of it.

Legend:
Assay in all cases: SPR
[1] = target: T1, CK19 (ligand protein of the Biacore assay) (UniProt P08727 1-400)
T1 chain: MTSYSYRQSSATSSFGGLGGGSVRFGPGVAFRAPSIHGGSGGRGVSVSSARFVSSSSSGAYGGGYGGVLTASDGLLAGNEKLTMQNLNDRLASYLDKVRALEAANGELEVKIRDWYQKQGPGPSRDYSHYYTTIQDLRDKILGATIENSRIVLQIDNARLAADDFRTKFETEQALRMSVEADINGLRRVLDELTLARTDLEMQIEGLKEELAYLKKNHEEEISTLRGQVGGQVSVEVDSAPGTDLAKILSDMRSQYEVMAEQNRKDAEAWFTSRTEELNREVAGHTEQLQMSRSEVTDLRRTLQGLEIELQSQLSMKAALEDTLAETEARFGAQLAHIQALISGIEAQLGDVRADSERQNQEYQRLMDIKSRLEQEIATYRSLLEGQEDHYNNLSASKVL

[2] = target: T1, CK19 (ligand protein of the Biacore …)
[3] = target: T1, CK19 (ligand protein of the Biacore …)
[4] = target: T1, CK19 (ligand protein of the Biacore …)

koff [1]: 0.0854 s⁻¹
Kd [2]: 635 nM
B1: NICD2-His (domain or fragment)
chain: VIMAKRKRKHGSLWLPEGFTLRRDASNHKRREPVGQDAVGLKNLSVQVSEANLIGTGTSEHWVDDEGPQPKKVKAEDEALLSEEDDPIDRRPWTQQHLEAADIRRTPSLALTPPQAEQEVDVLDVNVRGPDGCTPLMLASLRGGSSDLSDEDEDAEDSSANIITDLVYQGASLQAQTDRTGEMALHLAARYSRADAAKRLLDAGADANAQDNMGRCPLHAAVAADAQGVFQILIRNRVTDLDARMNDGTTPLILAARLAVEGMVAELINCQADVNAVDDHGKSALHWAAAVNNVEATLLLLKNGANRDMQDNKEETPLFLAAREGSYEAAKILLDHFANRDITDHMDRLPRDVARDRMHHDIVRLLDEYNVTPSPPGTVLTSALSPVICGPNRSFLSLKHTPMGKKSRRPSAKSTMPTSLPNLAKEAKDAKGSRRKKSLSEKVQLSESSVTLSPVDSLESPHTYVSDTTSSPMITSPGILQASPNPMLATAAPPAPVHAQHALSFSNLHEMQPLAHGASTVLPSVSQLLSHHHIVSPGSGSAGSLSRLHPVPVPADWMNRMEVNETQYNEMFGMVLAPAEGTHPGIAPQSRPPEGKHITTPREPLPPIVTFQLIPKGSIAQPAGAPQPQSTCPPAVAGPLPTMYQIPEMARLPSVAFPTAMMPQQDGQVAQTILPAYHPFPASVGKYPTPPSQHSYASSNAAERTPSHSGHLQGEHPYLTPSPESPDQWSSSSPHSASDWSDVTTSPTPGGAGGGQRGPGTHMSEPPHNNMQVYA

koff [3]: 0.0117 s⁻¹
Kd [4]: 214 nM
B2: MANF (analyte of the Biacore assay) (natural protein)
chain: LRPGDCEVCISYLGRFYQDLKDRDVTFSPATIENELIKFCREARGKENRLCYYIGATDDAATKIINEVSKPLAHHIPVEKICEKLKKKDSQICELKYDKQIDLSTVDLKKLRVKELKKILDDWGETCKGCAEKSDYIRKINELMPKYAPKAASARTDL
